Results as given in IntAct's records for PubMed 25502805.

B1: Emerin (Homo sapiens), P50402 (parent)
chain: MDNYADLSDTELTTLLRRYNIPHGPVVGSTRRLYEKKIFEYETQRRRLSPPSSSAASSYSFSDLNSTRGDADMYDLPKKEDALLYQSKGYNDDYYEESYFTTRTYGEPESAGPSRAVRQSVTSFPDADAFHHQVHDDDLLSSSEEECKDRERPMYGRDSAYQSITHYRPVSASRSSLDLSYYPTSSSTSFMSSSSSSSSWLTRRAIRPENRAPGAGLGQDRQVPLWGQLLLFLVFVIVLFFIYHFMQAEEGNPF
partner: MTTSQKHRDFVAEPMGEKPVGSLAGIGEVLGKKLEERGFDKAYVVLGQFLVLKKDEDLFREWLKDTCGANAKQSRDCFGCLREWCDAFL
B2: Cyclin-dependent kinase 4 inhibitor C (Homo sapiens), P42773 (parent)
chain: MAEPWGNELASAAARGDLEQLTSLLQNNVNVNAQNGFGRTALQVMKLGNPEIARRLLLRGANPDLKDRTGFAVIHDAARAGFLDTLQTLLEFQADVNIEDNEGNLPLHLAAKEGHLRVVEFLVKHTASNVGHRNHKGDTACDLARLYGRNEVVSLMQANGAGGATNLQ
B3: Kelch-like protein 3 (Homo sapiens), Q9UH77 (parent)
chain: MEGESVKLSSQTLIQAGDDEKNQRTITVNPAHMGKAFKVMNELRSKQLLCDVMIVAEDVEIEAHRVVLAACSPYFCAMFTGDMSESKAKKIEIKDVDGQTLSKLIDYIYTAEIEVTEENVQVLLPAASLLQLMDVRQNCCDFLQSQLHPTNCLGIRAFADVHTCTDLLQQANAYAEQHFPEVMLGEEFLSLSLDQVCSLISSDKLTVSSEEKVFEAVISWINYEKETRLEHMAKLMEHVRLPLLPRDYLVQTVEEEALIKNNNTCKDFLIEAMKYHLLPLDQRLLIKNPRTKPRTPVSLPKVMIVVGGQAPKAIRSVECYDFEEDRWDQIAELPSRRCRAGVVFMAGHVYAVGGFNGSLRVRTVDVYDGVKDQWTSIASMQERRSTLGAAVLNDLLYAVGGFDGSTGLASVEAYSYKTNEWFFVAPMNTRRSSVGVGVVEGKLYAVGGYDGASRQCLSTVEQYNPATNEWIYVADMSTRRSGAGVGVLSGQLYATGGHDGPLVRKSVEVYDPGTNTWKQVADMNMCRRNAGVCAVNGLLYVVGGDDGSCNLASVEYYNPVTDKWTLLPTNMSTGRSYAGVAVIHKSL
B4: Actin nucleation-promoting factor WAS (Homo sapiens), P42768 (parent)
chain: MSGGPMGGRPGGRGAPAVQQNIPSTLLQDHENQRLFEMLGRKCLTLATAVVQLYLALPPGAEHWTKEHCGAVCFVKDNPQKSYFIRLYGLQAGRLLWEQELYSQLVYSTPTPFFHTFAGDDCQAGLNFADEDEAQAFRALVQEKIQKRNQRQSGDRRQLPPPPTPANEERRGGLPPLPLHPGGDQGGPPVGPLSLGLATVDIQNPDITSSRYRGLPAPGPSPADKKRSGKKKISKADIGAPSGFKHVSHVGWDPQNGFDVNNLDPDLRSLFSRAGISEAQLTDAETSKLIYDFIEDQGGLEAVRQEMRRQEPLPPPPPPSRGGNQLPRPPIVGGNKGRSGPLPPVPLGIAPPPPTPRGPPPPGRGGPPPPPPPATGRSGPLPPPPPGAGGPPMPPPPPPPPPPPSSGNGPAPPPLPPALVPAGGLAPGGGRGALLDQIRQGIQLNKTPGAPESSALQPPPQSSEGLVGALMHVMQKRSRAIHSSDEGEDQAGDEDEDDEWDD

Variants of: B1
Conditions: with baf_human BANF1, O75531

effect of a mutation on the interaction | Variant
with no effect | MDNYADLSDTELTTLLRRYNIPHGPVVGSTRRLYEKKIFEYETQRRRLSPPSSSAASSYSFSDLNSTRGDAVMYDLPKKEDALLYQSKGYNDDYYEESYFTTRTYGEPESAGPSRAVRQSVTSFPDADAFHHQVHDDDLLSSSEEECKDRERPMYGRDSAYQSITHYRPVSASRSSLDLSYYPTSSSTSFMSSSSSSSSWLTRRAIRPENRAPGAGLGQDRQVPLWGQLLLFLVFVIVLFFIYHFMQAEEGNPF [D72V]
with no effect | MDNYADLSDTELTTLLRRYNIPHGPVVGSTRRLYEKKIFEYETQRRRLSPPSSFAASSYSFSDLNSTRGDADMYDLPKKEDALLYQSKGYNDDYYEESYFTTRTYGEPESAGPSRAVRQSVTSFPDADAFHHQVHDDDLLSSSEEECKDRERPMYGRDSAYQSITHYRPVSASRSSLDLSYYPTSSSTSFMSSSSSSSSWLTRRAIRPENRAPGAGLGQDRQVPLWGQLLLFLVFVIVLFFIYHFMQAEEGNPF [S54F]
with no effect | MDNYADLSDTELTTLLRRYNIPHGPVVGSTRRLYEKKIFEYETQRRRLSPPSSSAASSYSFSDLNSTRGDADMYDLPKKEDALLYQSKGYNDDYYEESYFTTRTYGEPESAGPSRAVRQSVTSFPDADAFHHQVHDDDLLSSSEEECKDRERPMYGRDSAYQSITHYRPVSASRSSLDLSYYTTSSSTSFMSSSSSSSSWLTRRAIRPENRAPGAGLGQDRQVPLWGQLLLFLVFVIVLFFIYHFMQAEEGNPF [P183T]

Variants of: B2
Conditions: with cdk6_human CDK6, Q00534
Chain of cdk6_human CDK6, Q00534 (Q00534 whole entry): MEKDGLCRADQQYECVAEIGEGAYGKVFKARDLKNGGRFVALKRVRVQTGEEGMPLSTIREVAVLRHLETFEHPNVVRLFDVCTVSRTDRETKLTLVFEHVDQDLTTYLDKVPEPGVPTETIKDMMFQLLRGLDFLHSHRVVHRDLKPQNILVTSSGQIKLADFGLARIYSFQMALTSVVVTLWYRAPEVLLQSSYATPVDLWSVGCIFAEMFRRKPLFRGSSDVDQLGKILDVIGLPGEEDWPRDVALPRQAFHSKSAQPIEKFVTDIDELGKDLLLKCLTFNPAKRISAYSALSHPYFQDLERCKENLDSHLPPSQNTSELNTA

effect of a mutation on the interaction | Variant
with no effect | MAEPWGNELASAAARGDLEQLTSLLQNNVNLNAQNGFGRTALQVMKLGNPEIARRLLLRGANPDLKDRTGFAVIHDAARAGFLDTLQTLLEFQADVNIEDNEGNLPLHLAAKEGHLRVVEFLVKHTASNVGHRNHKGDTACDLARLYGRNEVVSLMQANGAGGATNLQ [V31L]

Variants of: B3
Conditions: with cul3_human CUL3, Q13618

effect of a mutation on the interaction | Variant
disrupting interaction strength | MEGESVKLSSQTLIQAGDDEKNQRTITVNPAHMGKAFKVMNELRSKQLLCDVMIVAEDVEIEAHRVVLAACSPYFCAMFTGDMSESKAKKIEIKDVDGQTLSKLIDYIYTAEIEVTEENVQVLLPAASLLQLMDVRQNCCDFLQSQLHPTNCLGIRAFADVHTCTDLLQQANAYAEQHFPEVMLGEEFLSLSLDQVCSLISSDKLTVSSEEKVFEAVISWINYEKETGLEHMAKLMEHVRLPLLPRDYLVQTVEEEALIKNNNTCKDFLIEAMKYHLLPLDQRLLIKNPRTKPRTPVSLPKVMIVVGGQAPKAIRSVECYDFEEDRWDQIAELPSRRCRAGVVFMAGHVYAVGGFNGSLRVRTVDVYDGVKDQWTSIASMQERRSTLGAAVLNDLLYAVGGFDGSTGLASVEAYSYKTNEWFFVAPMNTRRSSVGVGVVEGKLYAVGGYDGASRQCLSTVEQYNPATNEWIYVADMSTRRSGAGVGVLSGQLYATGGHDGPLVRKSVEVYDPGTNTWKQVADMNMCRRNAGVCAVNGLLYVVGGDDGSCNLASVEYYNPVTDKWTLLPTNMSTGRSYAGVAVIHKSL [R228G]
disrupting interaction strength | MEGESVKLSSQTLIQAGDDEKNQRTITVNPAHMGKAFKVMNELRSKQLLCDVMIVAEDVEIEAHRVVLAACSPYFCAMFTGDMSESKAKKIEIKDVDGQTLSKLIDYIYTAEIEVTEENVQVLLPAASLLQLMDVRQNCCDFLQSQLHPTNCLGIRAFADVHTFTDLLQQANAYAEQHFPEVMLGEEFLSLSLDQVCSLISSDKLTVSSEEKVFEAVISWINYEKETRLEHMAKLMEHVRLPLLPRDYLVQTVEEEALIKNNNTCKDFLIEAMKYHLLPLDQRLLIKNPRTKPRTPVSLPKVMIVVGGQAPKAIRSVECYDFEEDRWDQIAELPSRRCRAGVVFMAGHVYAVGGFNGSLRVRTVDVYDGVKDQWTSIASMQERRSTLGAAVLNDLLYAVGGFDGSTGLASVEAYSYKTNEWFFVAPMNTRRSSVGVGVVEGKLYAVGGYDGASRQCLSTVEQYNPATNEWIYVADMSTRRSGAGVGVLSGQLYATGGHDGPLVRKSVEVYDPGTNTWKQVADMNMCRRNAGVCAVNGLLYVVGGDDGSCNLASVEYYNPVTDKWTLLPTNMSTGRSYAGVAVIHKSL [C164F]

Variants of: B4
Conditions: with cdc42_human CDC42, P60953
Chain of cdc42_human CDC42, P60953 (P60953 whole entry, looked up): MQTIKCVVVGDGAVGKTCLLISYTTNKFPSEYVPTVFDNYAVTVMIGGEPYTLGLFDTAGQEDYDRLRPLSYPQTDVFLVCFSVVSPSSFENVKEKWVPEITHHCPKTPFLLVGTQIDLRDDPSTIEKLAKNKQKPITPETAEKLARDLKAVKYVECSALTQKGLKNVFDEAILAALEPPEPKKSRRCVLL

effect of a mutation on the interaction | Variant
with no effect | MSGGPMGGRPGGRGAPAVQQNIPSTLLQDHENQRLFEMLGRKCLTLATAVVQLYLALPPGAEHWTKEHCGAVCFVKDNPQKSYFIRLYGLQAGRLLWEQELYSQLVYSTPTPFFHTFAGDDCQAGLNFADKDEAQAFRALVQEKIQKRNQRQSGDRRQLPPPPTPANEERRGGLPPLPLHPGGDQGGPPVGPLSLGLATVDIQNPDITSSRYRGLPAPGPSPADKKRSGKKKISKADIGAPSGFKHVSHVGWDPQNGFDVNNLDPDLRSLFSRAGISEAQLTDAETSKLIYDFIEDQGGLEAVRQEMRRQEPLPPPPPPSRGGNQLPRPPIVGGNKGRSGPLPPVPLGIAPPPPTPRGPPPPGRGGPPPPPPPATGRSGPLPPPPPGAGGPPMPPPPPPPPPPPSSGNGPAPPPLPPALVPAGGLAPGGGRGALLDQIRQGIQLNKTPGAPESSALQPPPQSSEGLVGALMHVMQKRSRAIHSSDEGEDQAGDEDEDDEWDD [E131K]
